In the RNAGym collection of RNA variant scans (doi:10.7554/elife.80360) one finds self-cleavage data, which are given here for 167 variants.

B1: HDV Ribozyme (parent)
chain: GGCCGGCAUGGUCCCAGCCUCCUCGCUGGCGCCGGCUGGGCAACAUUCCGAGGGGACCGUCCCCUCGGUAAUGGCGAAUGGGACCCA

In this data set the parent is B1. Description: self-cleavage, relative activity (ratio to wild type); higher = more cleavage; co-transcriptional.
As for G55U C58U, the self-cleavage was determined as 1.05. As for C62U U72A, the figure is 0.441. As for G11A A83C, the figure is 0.0707; as for A8C C86A, 0.72. To U23G C44A belongs 0.0791; to U37G G50U, 0.135. Consider C3G C36A, for which the self-cleavage amounted to 0.0288. To G11A G38C belongs 0.0911.

As to C30G C86U, the self-cleavage turned out to be 0.0332. As for G68U A70U, the figure is 0.849; as for U12G G35U, 0.104; as for C4A U69G, 0.285.

Regarding G55U A70U, the self-cleavage stood at 1.02. As for C4A C36A, the figure is 0.0314; as for U12G G73U, 0.166; as for A78C C85U, 0.0923. In the case of G5C G73A, the self-cleavage is 0.0554. To U23G U60G belongs 0.665. To G25U A43C belongs 0.147.

With U72C C75U, the self-cleavage turned out to be 0.192. For G25U U65A, the self-cleavage stood at 0. As for G39U C85A, the figure is 0.609; as for C21G G54A, 0.0496; as for C14A C75G, 0.256. For the variant A8C G11C, the self-cleavage worked out at 0.151. As for A45G G76C, the self-cleavage was 1.07.

For the variant G67A G82U, the self-cleavage was determined as 0.348.

C3G C21G: the self-cleavage stood at 0.

As to G2U A70U, the self-cleavage worked out at 0.0548.

On to G29C C61U, for which the self-cleavage was determined as 0.119.

In the case of U20G C57U, the self-cleavage turned out to be 0.302. As for U12G C49G, the self-cleavage was 0.787.

U12C C19G: the self-cleavage came out at 0.0723. To G25A G67U belongs 0.401. As for U46A A56U, the figure is 0.704; as for C36G C75A, 0.151. To G59A C61U belongs 1.11; to G11C A83U, 0.119; to C19G A87G, 0.16.

Turning to G35A C44U, the self-cleavage turned out to be 0.188. As for U27C C66A, the figure is 0.59. As for C4U U23G, the figure is 0.302; as for C32G C62A, 0.148; as for C36G U72A, 0.138.

With C44A U72C, the self-cleavage was 0.467.

In the case of A8C G35U, the self-cleavage is 0.269. To G10A U60G belongs 0.748. To C22G G55A belongs 0.0723; to C22A G82C, 0. To C4G A51C belongs 0.458; to G31A C62A, 0.445; to G6C U27C, 0.0923. For G10A C30U, the self-cleavage is 0.248.

U12G C48A: the self-cleavage stood at 0.831. Take C13G C86G: the self-cleavage was found to be 0.0978.

As for G11A A87G, the self-cleavage was determined as 0.502. As to G34A G73C, the self-cleavage was found to be 0.147.

Turning to C48A C85A, the self-cleavage came out at 0.717. To C21U C32G belongs 0; to G17C C33G, 0; to C44G, 0.753. To C30G C85A belongs 0.0308; to A43C A83U, 0.161; to U37A G68C, 0.0405.

As for C18G C21G, the self-cleavage was 0.175. In the case of U27C G39A, the self-cleavage came out at 0.175. To C57A A71C belongs 0.866; to C33G G68A, 0.177.

In the case of C19A C49G, the self-cleavage was 0.0733.

For G28C A83U, the self-cleavage was determined as 0.0437.

On to C62A U79C, for which the self-cleavage worked out at 0.339.

As to G35C U79C, the self-cleavage came out at 0.132. To C18G U72C belongs 0; to U47G G76A, 1.25. To C33A A77C belongs 0.0707; to U20A G25U, 0.119; to G52U C61U, 0.936. To C18G C63U belongs 0.0386; to G29C U72G, 0.208. For the variant C19U C44G, the self-cleavage is 0.0519.

As for G2U A83U, the self-cleavage is 0.0536.

Consider G34C C84A, for which the self-cleavage is 0. As for C7A C49A, the figure is 0.538; as for C18G A51C, 0.208; as for A56U G59C, 1.01. As for U69A A78U, the figure is 0.222. As for C36A A71U, the figure is 0.309; as for A8G G53U, 1.02. C18A G31U: the self-cleavage stood at 0.141. As for C15A C64G, the figure is 0.81; as for C33U C64U, 0.785; as for C30U U47A, 0.532. As for G11A G52U, the figure is 0.548; as for G29U G59U, 0.147; as for U20C G28C, 0.0755.

For C18U C22G, the self-cleavage was determined as 0.0462.

With C14G G39A, the self-cleavage was found to be 0.277. To C32U U60C belongs 0.7; to G2A G29U, 0.0205; to C33U U69G, 0.807.

Regarding C32A G39C, the self-cleavage amounted to 0.166. To G17C G50C belongs 0.324. As for U23C G29U, the figure is 0.142.

In the case of C14U G25A, the self-cleavage turned out to be 0.115.

With G31U G73A, the self-cleavage worked out at 0.0627. As for A8G G31A, the figure is 0.415; as for G53U G59U, 0.899. As for G11C G74U, the figure is 0.0963; as for C4A G6C, 0.0594; as for C62G A78U, 0.297. To G2A C57A belongs 0.258; to G31U C58G, 0.282; to C15U U20A, 0.0692. Consider U37G C41G, for which the self-cleavage was 0.332. Regarding C14A G50U, the self-cleavage worked out at 0.467. Consider C4U G74A, for which the self-cleavage was found to be 0.197. U9C C32U: the self-cleavage came to 0.862. To G67A G80A belongs 0.41.

For G55C G67C, the self-cleavage was 1.06. As for G17C C85A, the figure is 0.388; as for G59A C66G, 1.11.

Turning to G35U C75G, the self-cleavage turned out to be 0.0378. To C61U C86U belongs 1.03; to C19G G59U, 0.04. To C3A C86U belongs 0.745; to C15U G29C, 0.0449; to U47G U79G, 0.415.

Take G54U A56G: the self-cleavage was found to be 1.15. To U20C U69C belongs 0.208. As for G31A A56G, the self-cleavage is 0.369. As for U47G U60G, the figure is 1.21.

In the case of U23C A83U, the self-cleavage was found to be 0.767. Regarding G11U C49G, the self-cleavage came out at 0.166. To G40U U47C belongs 0.475. As for G1U C85A, the figure is 0.361.

With A8C G54C, the self-cleavage amounted to 0.746.

As for C15G A77C, the self-cleavage was 0.128.

In the case of C33U C84U, the self-cleavage is 0.479. As for C7G C49G, the figure is 0.123; as for G17C A78U, 0.18. As for C7G G28A, the figure is 0.0536; as for C33G A42U, 0.0678. As to C26U C61G, the self-cleavage was 1.19. Take C21A U47A: the self-cleavage worked out at 0.0462. As for C4G G55U, the figure is 0.376; as for C18G G67C, 0.203. To U46G A83U belongs 0; to G31U U60C, 0.639; to U20C A56C, 0.0615.

C63U G76C: the self-cleavage is 0.997. With G52C C85A, the self-cleavage amounted to 0.969. To G54U G68A belongs 0.81. As for C63A C66G, the figure is 0.494; as for G10C U69A, 0.831. As for G17U G74U, the figure is 0.217; as for U46G G55A, 0.649; as for G59C A87G, 0.99. With G6C U12G, the self-cleavage was 0. To C3U C84A belongs 0.665. To G17C A42U belongs 0.158. G31U C44A: the self-cleavage was determined as 0.0707. To G5C G34A belongs 0.0692; to G31C A87C, 0.531; to U12A G80C, 0.0852. As for G5A C15A, the figure is 0.162; as for G2C C33G, 0.0514.

Regarding C26A U46G, the self-cleavage was 0.86.
